Results: patent publication US20240181006A1, “POLYPEPTIDES BINDING ADAMTS5, MMP13 AND AGGRECAN” (Merck Patent GmbH, priority 2017, published 2024)

Columns and labels:
mouse ADAMTS5 = molecular target: T1, mouse ADAMTS5 (Mus musculus, UniProt Q9R001); assay: SPR-based off-rate analysis, mouse ADAMTS5; format: binding; settings: Experiment 2
T1 sequence (Q9R001 262-930): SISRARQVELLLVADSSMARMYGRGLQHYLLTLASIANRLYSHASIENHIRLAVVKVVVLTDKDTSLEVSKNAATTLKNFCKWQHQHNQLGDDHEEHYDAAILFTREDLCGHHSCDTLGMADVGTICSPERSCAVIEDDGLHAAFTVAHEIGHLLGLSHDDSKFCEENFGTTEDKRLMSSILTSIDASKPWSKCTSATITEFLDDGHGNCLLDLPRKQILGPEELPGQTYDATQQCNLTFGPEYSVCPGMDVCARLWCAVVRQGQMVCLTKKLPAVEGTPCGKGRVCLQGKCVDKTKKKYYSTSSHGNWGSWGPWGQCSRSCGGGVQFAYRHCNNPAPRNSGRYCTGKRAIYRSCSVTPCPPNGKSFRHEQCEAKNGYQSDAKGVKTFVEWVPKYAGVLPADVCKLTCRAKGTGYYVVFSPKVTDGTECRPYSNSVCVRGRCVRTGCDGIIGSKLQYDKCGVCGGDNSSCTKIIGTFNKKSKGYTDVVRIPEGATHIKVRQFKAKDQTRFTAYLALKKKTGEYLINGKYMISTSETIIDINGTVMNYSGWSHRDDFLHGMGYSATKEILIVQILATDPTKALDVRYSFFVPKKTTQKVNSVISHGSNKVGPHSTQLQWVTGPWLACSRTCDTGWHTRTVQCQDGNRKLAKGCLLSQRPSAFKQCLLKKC
Method: Species cross-reactivity was initially evaluated via SPR-based off-rate analysis on a Biacore T100 instrument. Polypeptides were tested for binding to human, cynomolgus monkey (“cyno”), guinea pig, mouse, and bovine ADAMTS5. To this end, recombinant ADAMTS5 was immobilized onto a CM5 chip via amine coupling using EDC and NHS. Purified ISVD 02F03 was injected for 2 minutes at a concentration of 100 nM and allowed to dissociate for 15 min at a flow rate of 45 μl/min. Off-rate for each individual ADAMTS5 was determined by fitting a 1:1 interaction model (Langmuir model) onto the individual dissociation curves using the BIA Evaluation software. As a reference, off-rates on human ADAMTS5 were determined in each experiment.

human ADAMTS5 [1] = molecular target: T2, human ADAMTS5 (Homo sapiens, UniProt Q9UNA0); assay: FRET-based human ADAMTS5 enzymatic assay; format: biochemical
T2 sequence (Q9UNA0 262-930): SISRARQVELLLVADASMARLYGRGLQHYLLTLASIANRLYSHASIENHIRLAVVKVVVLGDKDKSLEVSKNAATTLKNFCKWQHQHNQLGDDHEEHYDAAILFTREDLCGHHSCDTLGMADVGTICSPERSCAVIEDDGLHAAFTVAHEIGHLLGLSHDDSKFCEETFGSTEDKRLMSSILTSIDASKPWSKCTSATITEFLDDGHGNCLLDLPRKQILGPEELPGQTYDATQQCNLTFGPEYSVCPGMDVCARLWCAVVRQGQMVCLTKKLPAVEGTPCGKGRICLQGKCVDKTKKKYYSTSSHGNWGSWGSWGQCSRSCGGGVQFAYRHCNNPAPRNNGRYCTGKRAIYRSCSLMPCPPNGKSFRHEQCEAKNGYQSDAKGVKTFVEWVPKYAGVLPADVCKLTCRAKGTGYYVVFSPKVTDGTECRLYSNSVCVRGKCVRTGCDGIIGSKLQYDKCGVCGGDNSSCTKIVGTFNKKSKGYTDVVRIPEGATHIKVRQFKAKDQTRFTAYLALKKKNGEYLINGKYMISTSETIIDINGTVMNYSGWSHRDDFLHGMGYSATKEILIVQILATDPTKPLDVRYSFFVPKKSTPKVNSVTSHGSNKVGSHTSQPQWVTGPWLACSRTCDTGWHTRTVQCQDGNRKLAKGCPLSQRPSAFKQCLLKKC
Method: (§1) In short, a periplasmic extract of ISVD 02F03 was tested for binding to recombinant human ADAMTS5 by binding ELISA. Next, it was confirmed that ISVD 02F03 was able to prevent ADAMTS5-mediated cleavage of Aggrecan in a FRET-based human ADAMTS5 enzymatic assay. Next to the FRET-based assay, an AlphaLISA (Perkin Elmer, Waltham, MA, US) based human ADAMTS5 assay with a biotinylated 43-mer Aggrecan oligopeptide as substrate was performed. Upon ADAMTS5 cleavage of this substrate, a biotinylated ARGSV neo-epitope product is released and can be detected by streptavidin-AlphaScreen donor beads and an α-neo-epitope (“ARGSV”) antibody captured on anti-mouse IgG-coated AlphaLISA acceptor beads, resulting in the generation of a luminescence AlphaScreen signal upon laser excitation. To determine the ability of ISVD 02F03 to prevent ADAMTS5-mediated cleavage of the substrate, the decrease in signal was analysed in function of ISVD 02F03 concentration and IC50 values were calculated.

human ADAMTS5 [2] = molecular target: T2, human ADAMTS5; assay: AlphaLISA based human ADAMTS5 assay; format: biochemical
Method: as §1

SPR based off-rate, kd, Mouse ADAMTS-5 (mouse ADAMTS5): 0.00029 s⁻¹ | Human FRET % inhibition (human ADAMTS5 [1]): 89% | Human AlphaLISA % inhibition (human ADAMTS5 [2]): 100%
B1: ISVD 02F03: immunoglobulin single variable domain which specifically binds ADAMTS5 (protein)
VHH: EVQLVESGGGVVQPGGSLRLSCAASGRTVSSYAMGWFRQAPGKEREFVAGISRSAERTYYVDSLKGRFTISRDNSKNTVYLQMNSLRPEDTALYYCAADLDPNRIFSREEYAYWGQGTLVTVSS
modifications: Description of Artificial Sequence: Synthetic anti-ADAMTS5 immunoglobulin single variable domain (ISVD)
